What was measured:
[1] = target: T1, amphyphisin SH3 (AMPH_HUMAN), P49418; assay: SPOT array
T1 chain: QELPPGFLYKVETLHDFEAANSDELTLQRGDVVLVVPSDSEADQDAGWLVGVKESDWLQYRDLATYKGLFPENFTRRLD

[2] = target: endophilin SH3 (SH3G2_HUMAN), Q99962; assay: SPOT array

LDPALMRPGRFHRQ [O43931 13-26]
normalised SPOT signal, Boehringer light units (BLU); mean over the file's lines of this peptide [1]: 2880
normalised SPOT signal, Boehringer light units (BLU); mean over the file's lines of this peptide [2]: 311

LEESPWKPPTYLFS [Q9P239 478-492]
normalised SPOT signal, Boehringer light units (BLU); mean over the file's lines of this peptide [1]: 39.8
normalised SPOT signal, Boehringer light units (BLU); mean over the file's lines of this peptide [2]: 53.3

LDPALRRPGRFDRE [Q9HA41 350-363]
normalised SPOT signal, Boehringer light units (BLU); mean over the file's lines of this peptide [1]: 666
normalised SPOT signal, Boehringer light units (BLU); mean over the file's lines of this peptide [2]: 159

LDSILRRPYVTSQP [Q9Y5K1 339-352]
normalised SPOT signal, Boehringer light units (BLU); mean over the file's lines of this peptide [1]: 10.6
normalised SPOT signal, Boehringer light units (BLU); mean over the file's lines of this peptide [2]: 54.4

LDPALIRPGRIDRK [Q03527 337-350]
normalised SPOT signal, Boehringer light units (BLU); mean over the file's lines of this peptide [1]: 4590
normalised SPOT signal, Boehringer light units (BLU); mean over the file's lines of this peptide [2]: 75.3

LELALKRPRPPVLS [Q9ULJ3 268-281]
normalised SPOT signal, Boehringer light units (BLU); mean over the file's lines of this peptide [1]: 29.6
normalised SPOT signal, Boehringer light units (BLU); mean over the file's lines of this peptide [2]: 129

LDPALLRPGRFDKL [Q13608 854-867]
normalised SPOT signal, Boehringer light units (BLU); mean over the file's lines of this peptide [1]: 944
normalised SPOT signal, Boehringer light units (BLU); mean over the file's lines of this peptide [2]: 0

LDPALRRPSQKVYR [O15047 30-43]
normalised SPOT signal, Boehringer light units (BLU); mean over the file's lines of this peptide [1]: 37.6
normalised SPOT signal, Boehringer light units (BLU); mean over the file's lines of this peptide [2]: 108

APEPPPRPPPALSP [Q96NP9 14-28]
normalised SPOT signal, Boehringer light units (BLU); mean over the file's lines of this peptide [1]: 962
normalised SPOT signal, Boehringer light units (BLU); mean over the file's lines of this peptide [2]: 2330

APELLKRPKEYTVR [O14897 560-573]
normalised SPOT signal, Boehringer light units (BLU); mean over the file's lines of this peptide [1]: 28
normalised SPOT signal, Boehringer light units (BLU); mean over the file's lines of this peptide [2]: 29.7

LDPALLRPGRLDRK [P43686 317-330]
normalised SPOT signal, Boehringer light units (BLU); mean over the file's lines of this peptide [1]: 2030
normalised SPOT signal, Boehringer light units (BLU); mean over the file's lines of this peptide [2]: 123

LEDSPKRPKEAENP [P51858 162-175]
normalised SPOT signal, Boehringer light units (BLU); mean over the file's lines of this peptide [1]: 12.6
normalised SPOT signal, Boehringer light units (BLU); mean over the file's lines of this peptide [2]: 2.6

LSYSLYRPRKYLYV [Q9Y6D4 264-277]
normalised SPOT signal, Boehringer light units (BLU); mean over the file's lines of this peptide [1]: 137
normalised SPOT signal, Boehringer light units (BLU); mean over the file's lines of this peptide [2]: 288

LSNILRRPIIVISD [P21580 199-212]
normalised SPOT signal, Boehringer light units (BLU); mean over the file's lines of this peptide [1]: 26
normalised SPOT signal, Boehringer light units (BLU); mean over the file's lines of this peptide [2]: 84.4

LDNALIRPGRFDMQ [Q9Y2Q2 234-247]
normalised SPOT signal, Boehringer light units (BLU); mean over the file's lines of this peptide [1]: 240
normalised SPOT signal, Boehringer light units (BLU); mean over the file's lines of this peptide [2]: 80.5

LSGLIKRPGDLPEV [Q9UFP1 189-202]
normalised SPOT signal, Boehringer light units (BLU); mean over the file's lines of this peptide [1]: 21.9
normalised SPOT signal, Boehringer light units (BLU); mean over the file's lines of this peptide [2]: 49.5

LDPALLRPGRFDRQ [Q9Y4W6 459-472]
normalised SPOT signal, Boehringer light units (BLU); mean over the file's lines of this peptide [1]: 806
normalised SPOT signal, Boehringer light units (BLU); mean over the file's lines of this peptide [2]: 139

LDASPRRPPGPTTS [Q01970 912-926]
normalised SPOT signal, Boehringer light units (BLU); mean over the file's lines of this peptide [1]: 210
normalised SPOT signal, Boehringer light units (BLU); mean over the file's lines of this peptide [2]: 1090

LDGALMRPGRLDRH [Q9UQ90 461-474]
normalised SPOT signal, Boehringer light units (BLU); mean over the file's lines of this peptide [1]: 1540
normalised SPOT signal, Boehringer light units (BLU); mean over the file's lines of this peptide [2]: 1590

LDPLPRRPPAGRRG [BAC04326 52-66]
normalised SPOT signal, Boehringer light units (BLU); mean over the file's lines of this peptide [1]: 1100
normalised SPOT signal, Boehringer light units (BLU); mean over the file's lines of this peptide [2]: 4540

LEIPPPKPPAPLLH [Q8WXI9 364-378]
normalised SPOT signal, Boehringer light units (BLU); mean over the file's lines of this peptide [1]: 36.7
normalised SPOT signal, Boehringer light units (BLU); mean over the file's lines of this peptide [2]: 712

LSHPLARPRRDAEP [P27539 244-257]
normalised SPOT signal, Boehringer light units (BLU); mean over the file's lines of this peptide [1]: 984
normalised SPOT signal, Boehringer light units (BLU); mean over the file's lines of this peptide [2]: 405

LEIPPPKPPAPEMN [Q96F28 217-231]
normalised SPOT signal, Boehringer light units (BLU); mean over the file's lines of this peptide [1]: 31.6
normalised SPOT signal, Boehringer light units (BLU); mean over the file's lines of this peptide [2]: 43.4

LEFPPRRPFARRRM [O00513 852-865]
normalised SPOT signal, Boehringer light units (BLU); mean over the file's lines of this peptide [1]: 241
normalised SPOT signal, Boehringer light units (BLU); mean over the file's lines of this peptide [2]: 3050

LDSALLRPGRIDRK [P47210 301-314]
normalised SPOT signal, Boehringer light units (BLU); mean over the file's lines of this peptide [1]: 1620
normalised SPOT signal, Boehringer light units (BLU); mean over the file's lines of this peptide [2]: 117

AAPLLRRPHGGAGP [O75086 179-192]
normalised SPOT signal, Boehringer light units (BLU); mean over the file's lines of this peptide [1]: 25.6
normalised SPOT signal, Boehringer light units (BLU); mean over the file's lines of this peptide [2]: 102

LSQDLIRPIRKTGT [Q9HBF6 199-212]
normalised SPOT signal, Boehringer light units (BLU); mean over the file's lines of this peptide [1]: 1840
normalised SPOT signal, Boehringer light units (BLU); mean over the file's lines of this peptide [2]: 276

LDMALRRPPRLRLS [Q8WWL8 44-57]
normalised SPOT signal, Boehringer light units (BLU); mean over the file's lines of this peptide [1]: 4180
normalised SPOT signal, Boehringer light units (BLU); mean over the file's lines of this peptide [2]: 1210

LEQAFRRPNVNLTS [Q8WVX9 331-344]
normalised SPOT signal, Boehringer light units (BLU); mean over the file's lines of this peptide [1]: 43.1
normalised SPOT signal, Boehringer light units (BLU); mean over the file's lines of this peptide [2]: 42.5

LDPALMRPGRLDRK [P35998 327-340]
normalised SPOT signal, Boehringer light units (BLU); mean over the file's lines of this peptide [1]: 4700
normalised SPOT signal, Boehringer light units (BLU); mean over the file's lines of this peptide [2]: 346

LSKTLRRPRSLLET [Q9C000 828-841]
normalised SPOT signal, Boehringer light units (BLU); mean over the file's lines of this peptide [1]: 32.3
normalised SPOT signal, Boehringer light units (BLU); mean over the file's lines of this peptide [2]: 51.9

From publication PMC314469, “Protein Interaction Networks by Proteome Peptide Scanning” (PLoS Biology, 2004)
